Reference: patent US20180094274A1 (BOARD OF TRUSTEES OF MICHIGAN STATE UNIVERSITY, published 2018)

B4: cYFP-BPM1 (other, Arabidopsis, UniProt Q8L765 1-407, looked up)
chain: MGTTRVCSEVSSGSSKSLSQSLTVSTSTTETVNGFHEFKICGYSLAKGVGVGKYVASDTFMVGGYSWAIYFYPDGKSPEDNSSYVSLFIALASEGADVRALFELTLVDQSGNGKHKVHSHFGRALDSGPYTLKYRGSMWGYKRFFRRSSLESSDYLKENSLLVRCRVGVVKSVTEGPRYYNIPVPVSNLGQQLGNLLESGKGCDVVFQVDGETFNAHKLVLATRSPVFNAQLFGPLGDRNTKCITIEDMEAPIFKVLLHFIYWDELPDMQELIGTDSTLASTLVAQHLLAAADRYALERLKAICESKLCEGVAINTVATTLALAEQHHCLQLKAVCLKFVALPENLKAVMQTDGFDYLKESCPSLLTELLQYVARLSEHSVIVSGHRKEIFADGCDASGRRVKPRLH
notes: BiFC construct transiently produced in N. benthamiana leaves; also called 35S:cYFP-BPM1; BTB/POZ and MATH domain-containing (BPM) 1; not shown: C-terminal half of YFP from the BiFC vector

Assays:
[1] = target: T1, full length AtWRI1 (bait fusion, yeast two-hybrid) (Arabidopsis thaliana, UniProt Q6X5Y6 1-430); test: yeast two-hybrid
T1 construct: Transcription factor expressed in yeast as bait fusion; also called Arabidopsis thaliana WRINKLED1; not shown: bait fusion partner of the Y2H vector
T1 sequence: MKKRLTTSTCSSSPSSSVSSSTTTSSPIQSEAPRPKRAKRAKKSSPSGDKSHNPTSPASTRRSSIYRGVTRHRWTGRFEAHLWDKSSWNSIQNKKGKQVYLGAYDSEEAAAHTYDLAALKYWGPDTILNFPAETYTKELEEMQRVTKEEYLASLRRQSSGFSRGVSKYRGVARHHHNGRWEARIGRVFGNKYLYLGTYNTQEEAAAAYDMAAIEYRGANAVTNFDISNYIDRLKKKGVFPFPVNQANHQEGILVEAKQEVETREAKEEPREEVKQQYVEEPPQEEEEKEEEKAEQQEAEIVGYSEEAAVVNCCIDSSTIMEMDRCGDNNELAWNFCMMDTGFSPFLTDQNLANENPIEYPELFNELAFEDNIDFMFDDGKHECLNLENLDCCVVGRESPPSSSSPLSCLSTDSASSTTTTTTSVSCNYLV

cYFP-BPM1 = target: B4; test: BiFC, transient expression in N. benthamiana leaves
From the text: (§1) Confocal microscopy and bimolecular fluorescence complementation (BiFC) assays used 35S:YFP-AtWRI1 (including truncated AtWRI1 variants and AtWRI1 site-directed mutants fused to yellow fluorescent protein (YFP)) were generated through GATEWAY system. For BiFC experiments, 35S:nYFP-AtWRI1 (including truncated AtWRI1 variants) and 35S:cYFP-BPM1 were similarly assembled. Constructs were transformed into A. tumefaciens (GV3101 strain). For BiFC experiments to test protein-protein interaction, A. tumefaciens harboring each nYFP and cYFP fusion construct was prepared (each culture was re-suspended to 1.2 OD₆₀₀ in MMA buffer) and adjusted to 0.4 OD₆₀₀ prior to injection into plant leaves. Healthy leaves of N. benthamiana plants were infiltrated by bacterial suspensions with a 1-mL blunt-end syringe. Plants were returned to growth chambers and YFP fluorescence signals were captured by a confocal microscope 2 to 3 d after bacterial infiltration. YFP fluorescence signal intensity was analyzed using ImageJ software.
(§2) A bimolecular fluorescence complementation (BiFC) assay was used to investigate the interaction between AtWRI1 and a BPM protein (BPM1). AtWRI1 and BPM1 were subcloned to BiFC vectors which generated nYFP-AtWRI1 and cYFP-BPM1 (half N-terminus of YFP and half C-terminus of YFP, respectively). […]

BPM1 (yeast two-hybrid) [2] = target: T2, BPM1 (yeast two-hybrid) (Arabidopsis, UniProt Q8L765 1-407); test: yeast two-hybrid
T2 construct: also called E3 ligase bridge protein BPM1; E3 ligase linker BPM protein; not shown: Y2H fusion partner
T2 sequence (looked up): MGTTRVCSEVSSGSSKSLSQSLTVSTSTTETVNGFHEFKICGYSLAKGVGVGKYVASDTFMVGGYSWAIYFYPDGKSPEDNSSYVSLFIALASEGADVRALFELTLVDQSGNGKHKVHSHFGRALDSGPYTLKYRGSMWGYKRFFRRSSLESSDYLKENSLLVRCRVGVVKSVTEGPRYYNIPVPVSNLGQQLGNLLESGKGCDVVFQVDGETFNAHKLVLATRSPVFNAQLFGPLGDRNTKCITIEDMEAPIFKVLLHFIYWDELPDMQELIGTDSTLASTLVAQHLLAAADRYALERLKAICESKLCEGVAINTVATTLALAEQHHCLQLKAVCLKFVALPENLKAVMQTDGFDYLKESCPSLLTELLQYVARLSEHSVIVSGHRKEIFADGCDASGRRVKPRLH

nYFP-AtWRI1 = target: T3, nYFP-AtWRI1 (Arabidopsis thaliana, UniProt Q6X5Y6 1-430); test: BiFC, transient expression in N. benthamiana leaves
T3 construct: BiFC construct transiently produced in N. benthamiana leaves; also called 35S:nYFP-AtWRI1; not shown: N-terminal half of YFP from the BiFC vector
T3 sequence: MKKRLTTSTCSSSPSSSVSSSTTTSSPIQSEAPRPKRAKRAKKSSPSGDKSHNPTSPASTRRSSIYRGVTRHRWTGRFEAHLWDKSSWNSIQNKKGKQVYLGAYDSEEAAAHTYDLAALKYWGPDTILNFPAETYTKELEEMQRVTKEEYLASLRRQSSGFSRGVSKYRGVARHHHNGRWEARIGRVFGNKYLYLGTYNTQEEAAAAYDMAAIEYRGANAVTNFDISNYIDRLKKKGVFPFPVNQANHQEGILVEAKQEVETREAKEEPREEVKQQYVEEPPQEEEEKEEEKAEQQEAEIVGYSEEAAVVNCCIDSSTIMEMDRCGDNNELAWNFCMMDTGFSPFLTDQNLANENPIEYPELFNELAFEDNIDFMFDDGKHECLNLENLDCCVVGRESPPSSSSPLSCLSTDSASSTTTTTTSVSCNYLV
From the text: as §1, §2

BPM1 (yeast two-hybrid) [3] = target: T2, BPM1 (yeast two-hybrid); test: yeast two-hybrid with truncated AtWRI1 variants

B1: 14-3-3ν (yeast two-hybrid) (other, Arabidopsis, UniProt Q96300 1-265, looked up)
chain: MSSSREENVYLAKLAEQAERYEEMVEFMEKVAKTVDTDELTVEERNLLSVAYKNVIGARRASWRIISSIEQKEESRGNDDHVSIIKDYRGKIETELSKICDGILNLLDSHLVPTASLAESKVFYLKMKGDYHRYLAEFKTGAERKEAAESTLVAYKSAQDIALADLAPTHPIRLGLALNFSVFYYEILNSPDRACSLAKQAFDEAISELDTLGEESYKDSTLIMQLLRDNLTLWNSDINDEAGGDEIKEASKHEPEEGKPAETGQ
notes: also called 14-3-3 nu; not shown: Y2H fusion partner
binding result [1]: binds

B2: nYFP-AtWRI1^1-366 (other)
chain: MKKRLTTSTCSSSPSSSVSSSTTTSSPIQSEAPRPKRAKRAKKSSPSGDKSHNPTSPASTRRSSIYRGVTRHRWTGRFEAHLWDKSSWNSIQNKKGKQVYLGAYDSEEAAAHTYDLAALKYWGPDTILNFPAETYTKELEEMQRVTKEEYLASLRRQSSGFSRGVSKYRGVARHHHNGRWEARIGRVFGNKYLYLGTYNTQEEAAAAYDMAAIEYRGANAVTNFDISNYIDRLKKKGVFPFPVNQANHQEGILVEAKQEVETREAKEEPREEVKQQYVEEPPQEEEEKEEEKAEQQEAEIVGYSEEAAVVNCCIDSSTIMEMDRCGDNNELAWNFCMMDTGFSPFLTDQNLANENPIEYPELFNEL
notes: also called AtWRI1^Δ367-430; not shown: N-terminal half of YFP from the BiFC vector
binding result (cYFP-BPM1): binds

B3: AtWRI1^1-77 (yeast two-hybrid) (other)
chain: MKKRLTTSTCSSSPSSSVSSSTTTSSPIQSEAPRPKRAKRAKKSSPSGDKSHNPTSPASTRRSSIYRGVTRHRWTGR
notes: Truncated AtWRI1 variant; not shown: Y2H fusion partner
binding result (BPM1 (yeast two-hybrid) [2]): no binding

B4
binding result (nYFP-AtWRI1): binds

B5: AtWRI1^1-92 (yeast two-hybrid) (other)
chain: MKKRLTTSTCSSSPSSSVSSSTTTSSPIQSEAPRPKRAKRAKKSSPSGDKSHNPTSPASTRRSSIYRGVTRHRWTGRFEAHLWDKSSWNSIQ
notes: as for B3
binding result (BPM1 (yeast two-hybrid) [3]): binds
